Residue numbers refer to the chain shown, from its start.

First the molecules themselves.
T1: Osh6(H157A/H158A) (S. cerevisiae, UniProt Q02201 1-448, H157A | H158A)
T1 construct: also called Osh6(HH/AA)
T1 sequence (looked up): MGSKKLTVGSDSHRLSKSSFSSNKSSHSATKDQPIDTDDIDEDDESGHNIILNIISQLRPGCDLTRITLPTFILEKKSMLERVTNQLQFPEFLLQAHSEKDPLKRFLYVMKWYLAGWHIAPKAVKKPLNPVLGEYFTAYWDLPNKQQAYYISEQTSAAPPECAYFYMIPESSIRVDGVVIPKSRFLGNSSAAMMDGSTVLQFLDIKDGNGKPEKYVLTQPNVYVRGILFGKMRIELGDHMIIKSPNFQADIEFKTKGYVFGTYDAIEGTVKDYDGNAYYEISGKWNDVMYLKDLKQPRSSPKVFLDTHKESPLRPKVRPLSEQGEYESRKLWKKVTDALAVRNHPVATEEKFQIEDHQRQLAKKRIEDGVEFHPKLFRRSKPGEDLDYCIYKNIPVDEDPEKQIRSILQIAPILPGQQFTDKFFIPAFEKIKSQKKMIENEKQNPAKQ

B1: Osh6 (natural protein, S. cerevisiae, UniProt Q02201 1-448, looked up)
chain: T1 sequence (looked up) with A157H, A158H
B2: Osh6(HH/AA)-3M (natural protein, S. cerevisiae, UniProt Q02201 1-448, looked up)
chain: T1 sequence (looked up) with E170A, Q417A, T420I
B3: CIst2[590–946] (domain or fragment, S. cerevisiae)
chain: CSSHDDVANGIVPKHVVNVQNPPKQEVFEKIPSPEFNSNNEKELVQRKGSANEKLHQELGEKQPASSANGYEAHAATHANNDPSSLSSASSPSLSSSSSSSKTGVVKAVDNDTAGSAGKKPLATESTEKRNSLVKVPTVGSYGVAGATLPETIPTSKNYYLRFDEDGKSIRDAKSSAESSNATNNNTLGTESKLLPDGDAVDALSRKIDQIPKIAVTGGENNENTQAKDDAATKTPLIKDANIKPVVNAAVNDNQSKVSVATEQTKKTEVSTKNGPSRSISTKETKDSARPSNNNTTTTTTTDATQPHHHHHHHRHRDAGVKNVTNNSKTTESSSSSSAAKEKPKHKKGLLHKLKKKL
modifications: N-terminal cysteine covalently attached to MPB-PE of liposomes (in the experiments with MPB-PE–containing liposomes)
notes: extra N-terminal cysteine; With PM-like liposomes it is held by its C-terminal polybasic motif, not covalently; also called Ist2 IDR with an extra N-terminal cysteine; source: E. coli BL21-GOLD(DE3), purified (Glutathione Sepharose 4B, thrombin cleavage, Sephacryl S-200 HR); not shown: GST, N-terminal, cleaved
B4: GST-Ist2[590–946] (domain or fragment, S. cerevisiae, UniProt P38250 590-946, looked up)
chain: SSHDDVANGIVPKHVVNVQNPPKQEVFEKIPSPEFNSNNEKELVQRKGSANEKLHQELGEKQPASSANGYEAHAATHANNDPSSLSSASSPSLSSSSSSSKTGVVKAVDNDTAGSAGKKPLATESTEKRNSLVKVPTVGSYGVAGATLPETIPTSKNYYLRFDEDGKSIRDAKSSAESSNATNNNTLGTESKLLPDGDAVDALSRKIDQIPKIAVTGGENNENTQAKDDAATKTPLIKDANIKPVVNAAVNDNQSKVSVATEQTKKTEVSTKNGPSRSISTKETKDSARPSNNNTTTTTTTDATQPHHHHHHHRHRDAGVKNVTNNSKTTESSSSSSAAKEKPKHKKGLLHKLKKKL
notes: also called Ist2 IDR; full-length Ist2 IDR; source: E. coli BL21-GOLD(DE3), purified (Glutathione Sepharose 4B, eluted with glutathione); not shown: GST, N-terminal, kept

The target of experiment [1] is B3.
Experiment [2] addresses B3. Put plainly: cell-based or functional assay.
In experiment [3] the target is B1. Put plainly: liposome flotation assay; Osh6 (0.75 μM) with or without an equivalent amount of CIst2[590–946] and PM-like liposomes POPC/POPS/PI(4,5)P2/NBD-PE (65:30:5:0.1); sucrose gradient, top fraction by SDS-PAGE. The conditions noted are these: both partners purified.
Experiment [4] addresses T1, Osh6(H157A/H158A). Put plainly: pull-down; GST constructs (2.5 μM) immobilised on Glutathione Sepharose 4B beads; Osh6, its mutants, Osh4, ORD^Osh3 or ORD^ORP8 added at 2.5 μM; 50 mM tris pH 7.4, 120 mM NaCl, 1 mM MgCl2, 1% TX-100, 1 mM DTT, 10% glycerol; 25°C, 1 hour; bound fraction by SDS-PAGE. The conditions noted are these: both partners purified.

For the molecule “ORD^ORP8 (H514A/H515A) (domain or fragment)”, the Ist2-dependent (ER→PM)/(ER→O) NBD-PS transfer rate ratio R (Ist2), three liposome populations, LER and LPM connected by CIst2[590–946], FRET, 30°C in experiment [1] turned out to be 1.

On to B1, for which the “Ist2-dependent (ER→PM)/(ER→O) NBD-PS transfer rate ratio R_(Ist2), three liposome populations, LER and LPM connected by CIst2[590–946], FRET, 30°C” value in experiment [2] is 7.6.

Turning to B2, the “Ist2-dependent (ER→PM)/(ER→O) NBD-PS transfer rate ratio R_(Ist2), three liposome populations, LER and LPM connected by CIst2[590–946], FRET” value in experiment [2] was roughly 1.

As to B3, the binding result in experiment [3] is “binds”.

Turning to B4, in experiment [4], the binding result was “binds”.

Values taken from paper PMC12617493 (Science Advances, 2025).
